Legend:
[1] = biological target: T1, TCF4 (TCF7L2) DNA-binding domain (UniProt Q9NQB0 Q9NQB0:265-496); assay: EMSA; high affinity; 1 ug protein in 15 ul; conditions: tags: His (pET28A), expressed in E. coli; label: 32P 5' end
Procedure: (§1) Double-stranded DNA oligonucleotides (30 mers) containing the genomic TBE sites T1-T4 with flanking sequences were 5′ end-labeled with ³²P and 5000 cpm/μl of labeled probe was incubated with 1 μg of recombinant His-TCF4 protein in a total volume of 15 μl binding buffer. For competition and supershift experiments, His-TCF4 was pre-incubated with unlabelled DNA oligonucleotides at 400-fold excess or with 1-5 μg of anti-6× His tag antibody (Abcam) for 10 minutes prior to addition of labeled probe. Samples were separated on 5% non-denaturing polyacrylamide gels for 1 h at 400V. Protein-DNA complexes were detected by phosphoimaging on a Storm 840 Scanner (Molecular Dynamics).
To elucidate the molecular pathways acting upstream of Lbh, murine Lbh genomic sequences were screened for potential transcription factor binding sites. This in silico search identified four conserved putative TCF/LEF-binding elements (TBEs) in the Lbh gene locus. Two TBEs with the consensus motif 5′-CTTTG(A/T)(A/T)-3′ were located within an enhancer region (E1)-6245 (T1) and −6195 (T2) base pairs (bp) upstream of the Lbh transcriptional start site (FIG. 1A). In addition, two consensus TBEs were found in an enhancer (E2) contained within the first intron of the Lbh gene at positions +1558 (T3) and +2145 (T4) by (FIG. 1A). To directly assay for TCF binding to these sites, electrophoretic mobility shift analysis (EMSA) was performed. Recombinant TCF4 protein bound with high affinity to all Lbh-specific TBEs (T1-T4), but not to an unspecific oligonucleotide (FIG. 1B). TCF4 binding to these sites was efficiently competed by addition of 400-fold excess of unlabeled wild-type (+) oligonucleotide as well as increasing amounts of an antibody against recombinant TCF4 protein, but not by addition of 400-fold excess of mutant (m) oligonucleotide (FIGS. 1B, C). Subsequently, cell-based reporter assays were performed to test whether the Lbh genespecific TBE sites (T1-T4) were functionally responsive to overexpression of β-catenin, which is the Wnt-inducible component of the TCF/β-catenin transcriptional complex. […]

[2] = biological target: T1, TCF4 (TCF7L2) DNA-binding domain; assay: EMSA; high affinity; anti-His supershift assay; conditions: tags: His (pET28A), expressed in E. coli; label: 32P 5' end
Procedure: as §1

T1 sequence (Q9NQB0 265-496, one chain of several): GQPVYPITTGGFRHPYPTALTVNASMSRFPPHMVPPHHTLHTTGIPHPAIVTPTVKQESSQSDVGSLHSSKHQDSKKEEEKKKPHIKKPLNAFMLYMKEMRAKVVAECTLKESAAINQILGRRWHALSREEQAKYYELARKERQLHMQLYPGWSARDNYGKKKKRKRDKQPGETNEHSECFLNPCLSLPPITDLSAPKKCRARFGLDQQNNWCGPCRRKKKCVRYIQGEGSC

| Binder | binding result [1] | binding result [2] |
| --- | --- | --- |
| Lbh TBE T1 (dsDNA) DNA 1: CCTTTGAATC DNA 2: GATTCAAAGG | binds | – |
| Lbh TBE T2 (dsDNA) DNA 1: TCTTTGATAT DNA 2: ATATCAAAGA | binds | – |
| Lbh TBE T4 (dsDNA) DNA 1: ACTTTGTACT DNA 2: AGTACAAAGT | binds | – |
| Lbh TBE T3 (dsDNA) DNA 1: GCTTTGAAGA DNA 2: TCTTCAAAGC | – | binds |

— patent US20110039788, “COMPOSITIONS, METHODS AND KITS FOR DETECTING AND TREATING CANCER” (University of Miami, published 2011)
